Data taken from patent US7264932B2, “Nuclease inhibitor cocktail” (Applera Corporation, priority 1999, dated 2007).

T1: bovine RNase A (Bos taurus, UniProt P61823)
T1 sequence (P61823 27-150): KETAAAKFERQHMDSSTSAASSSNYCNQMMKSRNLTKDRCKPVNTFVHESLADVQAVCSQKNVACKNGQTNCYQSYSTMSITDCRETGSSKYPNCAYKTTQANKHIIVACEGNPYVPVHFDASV

B1: PK: proteinase K, protease that digests RNase proteins to peptide fragments (protein, UniProt P06873 106-384, looked up)
Proteinase K: AAQTNAPWGLARISSTSPGTSTYYYDESAGQGSCVYVIDTGIEASHPEFEGRAQMVKTYYYSSRDGNGHGTHCAGTVGSRTYGVAKKTQLFGVKVLDDNGSGQYSTIIAGMDFVASDKNNRNCPKGVVASLSLGGGYSSSVNSAAARLQSSGVMVAVAAGNNNADARNYSPASEPSVCTVGASDRYDRRSSFSNYGSVLDIFGPGTSILSTWIGGSTRSISGTSMATPHVAGLAAYLMTLGKTTAASACRYIADTANKGDLSNIPFGTVNLLAYNNYQA
B2: RIP: human placental RNase Inhibitor Protein (protein, UniProt P13489 2-461, looked up)
Ribonuclease inhibitor: SLDIQSLDIQCEELSDARWAELLPLLQQCQVVRLDDCGLTEARCKDISSALRVNPALAELNLRSNELGDVGVHCVLQGLQTPSCKIQKLSLQNCCLTGAGCGVLSSTLRTLPTLQELHLSDNLLGDAGLQLLCEGLLDPQCRLEKLQLEYCSLSAASCEPLASVLRAKPDFKELTVSNNDINEAGVRVLCQGLKDSPCQLEALKLESCGVTSDNCRDLCGIVASKASLRELALGSNKLGDVGMAELCPGLLHPSSRLRTLWIWECGITAKGCGDLCRVLRAKESLKELSLAGNELGDEGARLLCETLLEPGCQLESLWVKSCSFTAACCSHFSSVLAQNRFLLELQISNNRLEDAGVRELCQGLGQPGSVLRVLWLADCDVSDSSCSSLAATLLANHSLRELDLSNNCLGDAGILQLVESVRQPGCLLEQLVLYDIYWSEEMEDRLQALEKDKPSLRVIS

Columns and labels:
[1] = tested on: total RNase activity in murine kidney plus pancreatic lysate; experiment: Proteinase K inactivation of total RNase activity in kidney lysate with pancreatic lysate; format: biochemical; details: 600 ng/uL PK
Method: Murine kidney (40 ul of 0.1 mg/ul) was introduced into a 50 uL reaction with a dilute pancreatic lysate (1 or 10 ul of pancreas at 0.1 mg/ul) prepared in 24 mM Hepes, pH 7.2, 50 mM NaCl, 1 MM MgCl2. All samples were digested at 50C for 5 min in PK buffer at 23C. […] Although proteinase K is a protein-based inhibitor, RNase inactivation occurs by a very different mechanism than a protein inhibitor such as RIP, since proteinase K digests RNase proteins to peptide fragments, thereby destroying the folded (active) conformation of the enzyme.

[2] = tested on: total RNase activity in spleen lysate; experiment: RNaseAlert fluorescent assay, spleen lysate; format: biochemical, mouse; details: 0.5 U/ul RIP
Method: (§1) Flash-frozen mouse tissues (5 mg) were dounced in 50 ul of 24 mM Hepes, pH 7.2, 50 mM NaCl, 1 mM MgCl2. RNase activity was measured using Ambion's fluorescent RNaseAlert™ assay ([…] substrate, 10 ug/ml ultrapure BSA) via BMG POLARstar Optima Fluorometer according to the manufacturer's protocol. In addition to measuring total RNase activity, lysates were treated with Ap5A, heat (90 C for 10 min), or 0.5 U/ul RIP. Tissue lysate dilutions: pancreas 1:16,200; liver 1:17; thymus 1:17; kidney 1:17; spleen 1:810; lung 1:810. The data were normalized to maximum RNase activity observed in tissue lysate with kidney being the tissue with the lowest RNase activity and assigned the arbitrary unit of 1. […] However, RIP is specific to RNase A superfamily enzymes, where Ap5A, as a RNA analogue, is expected to be a more general RNase inhibitor.

[3] = tested on: total RNase activity in lung lysate; experiment: RNaseAlert fluorescent assay, lung lysate; format: biochemical, mouse; details: 0.5 U/ul RIP
Method: as §1

[4] = tested on: total RNase activity in pancreas lysate; experiment: RNaseAlert fluorescent assay, pancreas lysate; format: biochemical, mouse; details: Pancreas, 0.5 U/ul RIP
Method: as §1
Pancreatic tissue (5 mg) was dounced in 50ul of 24 mM Hepes, pH 7.2, 50 mM NaCl, 1 mM MgCl2. Diluted pancreas lysate (1:12,000) was subjected to a 1/10 volume of negatively charged SP resin. RNase activity of the clarified lysate was measured using. Ambion's fluorescent RNaseAlert™ assay (40 nM substrate, 10 ug/ml ultrapure BSA) via BMG POLARstar Optima, according to the manufacturer's instructions. Resin treatment removed >95% of total RNase activity in diluted pancreas lysate. […]

bovine RNase A = molecular target: T1, bovine RNase A; experiment: Intactness of total RNA (RNA LabChip), bovine RNase A; format: biochemical; details: 0.2u/ul rip, 5 pg/ul bovine rnase a, e. coli total rna, room temperature 4 min
Method: A total of 100 pg/ul e. […].
Mouse pancreatic tissue (5 mg) was disrupted in 50 ul of 24 mM Hepes, pH 7.2, 50 mM NaCl, 1 mM MgCl2. The diluted lysate (1:20,000) was pre-incubated with 50 uM Benzopurpurin B (BpB) for 30 sec and then added to 100 ng/ul mouse liver total RNA (Ambion) and incubated at 23 C for an additional 4 min. Samples were quenched in a guanidinium lysis buffer, and the RNA purified via MEGAclear™ MAG-96 and eluted with 20 ul nuclease-free water. […] These experiments were conducted in the same fashion except that 100 uM BpB was employed. The sample (1 ul) was analyzed by 2100 BioAnalyzer software (Agilent) after separation on an RNA LabChip.
Pancreatic tissue (5 mg) was dounced in 50 ul of 24 mM Hepes, pH 7.2, 50 mM NaCl, 1 mM MgCl2. The lysate was diluted (1:20,000) and then pre-incubated with 200 uM of 467929. […] All samples were pre-incubated for 30 sec before being added to 100 ng/ul mouse liver total RNA (Ambion) and incubated at 23C for an additional 4 min. The RNA was then immediately purified via MEGAclear™ MAG-96 and eluted with 20 ul nuclease-free water. The recovered RNA (1 ul) was analyzed by 2100 BioAnalyzer software after separation on an RNA LabChip.

| Molecule | Fold Reduction ([1]; 1 uL pancreas) | Slope ([1]; 1 uL pancreas) [RFU/sec] | Fold Reduction ([1]; 10 uL pancreas) | Slope ([1]; 10 uL pancreas) [RFU/sec] | Slope ([1]; No pancreas) [RFU/sec] | % Inhibition [2] [%] | Slope/sec Final (After RIP addition) [2] | % Inhibition [3] [%] | Slope/sec Final (After RIP addition) [3] | % Inhibition [4] [%] | Slope/sec Final (After RIP addition) [4] | protection of total RNA from degradation (bovine RNase A) |
| --- | --- | --- | --- | --- | --- | --- | --- | --- | --- | --- | --- | --- |
| B1 | 1283 | 0.0938 | 242 | 0.6074 | 0.0123 | – | – | – | – | – | – | – |
| B2 | – | – | – | – | – | 98.0 | 1.08 | 99.3 | 0.21 | 99.7 | 0.17 | significant protection |
